Source: the RNAGym collection of RNA variant scans (doi:10.1093/molbev/msab373)

B1: Azoarcus group I ribozyme (parent)
chain: GUGCCUUGCGCCGGGAAACCACGCAAGGGAUGGUGUCAAAUUCGGCGAAACCUAAGCGCCCGCCCGGGCGUAUGGCAACGCCGAGCCAAGCUUCGGCGCCUGCGCCGAUGAAGGUGUAGAGACUAGACGGCACCCACCUAAGGCAAACGCUAUGGUGAAGGCAUAGUCCAGGGAGUGGCGAAAGUCACACAAACCGG

Variants of: B1
Assay: reverse-splicing fitness (ratio to wild type); higher = more active; in vitro selection; Mg2+ level not given
Summary of the method: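 An in vitro group I ribozyme library with randomized positions was T7-transcribed and gel-purified. In triplicate, 10 pmol RNA in EPPS pH 7.5 was reacted with 50 pmoles of a 30-nt RNA substrate for 1 h at 37 °C across several added MgCl2 levels (1–48 mM), then stopped with EDTA. Products were reverse transcribed from a substrate-complementary primer, PCR-amplified and sequenced (HiSeq 4000). Fitness is a variant's read proportion after selection over that before, normalised to wild type.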

Variant	reverse-splicing fitness
GUGCCUUGCGCCGGGAAACCACGCAAGGGAUGGUGUCAAAUUCGGCGAAACCUAAGCGCCCGCCCGGGCGUAUGGCAACGCGGAGCCAAGCUUCGGCGCCUGCGCCGAUGGAGGUGUAGAGACUAGACGGCACCCACCUAAGGCUAACGCUAUGGUGAAGGCAUAGUCAAGGGAGGGGCGAAAGUCACACAAACCGG [C82G A111G A145U C169A U176G]	0.0052
GUGCCUUGCGCCGGGAAACCACGCAAGGGAUGGUGUCAAAUUCGGCGAAACCUAAGCGCCCGCCCGGGCGUAUGGCAACGCGGAGCCAAGCUUCGGCGCCUGCGCCGAUGGAGGUGUAGAGACUAGACGGCACCCACCUAAGGCUAACGCUAUGGUGAAGGCAUAGUCGAGGGAGUGGCGAAAGUCACACAAACCGG [C82G A111G A145U C169G]	0.0101
GUGCCUUGCGCCGGGAAACCACGCAAGGGAUGGUGUCAAAUUCGGCGAAACCUAAGCGCCCGCCCGGGCGUAUGGCAACGCGGAGCCAAGCUUCGGCGCCUGCGCCGAUGGAGGUGUAGAGACUAGACGGCACCCACCUAAGGCUAACGCUAUGGUGAAGGCAUAGUCGAGGGAGAGGCGAAAGUCACACAAACCGG [C82G A111G A145U C169G U176A]	0.0136
GUGCCUUGCGCCGGGAAACCACGCAAGGGAUGGUGUCAAAUUCGGCGAAACCUAAGCGCCCGCCCGGGCGUAUGGCAACGCGGAGCCAAGCUUCGGCGCCUGCGCCGAUGGAGGUGUAGAGACUAGACGGCACCCACCUAAGGCUAACGCUAUGGUGAAGGCAUAGUCGAGGGAGCGGCGAAAGUCACACAAACCGG [C82G A111G A145U C169G U176C]	0.0147
GUGCCUUGCGCCGGGAAACCACGCAAGGGAUGGUGUCAAAUUCGGCGAAACCUAAGCGCCCGCCCGGGCGUAUGGCAACGCGGAGCCAAGCUUCGGCGCCUGCGCCGAUGGAGGUGUAGAGACUAGACGGCACCCACCUAAGGCUAACGCUAUGGUGAAGGCAUAGUCGAGGGAGGGGCGAAAGUCACACAAACCGG [C82G A111G A145U C169G U176G]	0.00507
GUGCCUUGCGCCGGGAAACCACGCAAGGGAUGGUGUCAAAUUCGGCGAAACCUAAGCGCCCGCCCGGGCGUAUGGCAACGCGGAGCCAAGCUUCGGCGCCUGCGCCGAUGGAGGUGUAGAGACUAGACGGCACCCACCUAAGGCUAACGCUAUGGUGAAGGCAUAGUCUAGGGAGUGGCGAAAGUCACACAAACCGG [C82G A111G A145U C169U]	0.0127
GUGCCUUGCGCCGGGAAACCACGCAAGGGAUGGUGUCAAAUUCGGCGAAACCUAAGCGCCCGCCCGGGCGUAUGGCAACGCGGAGCCAAGCUUCGGCGCCUGCGCCGAUGGAGGUGUAGAGACUAGACGGCACCCACCUAAGGCUAACGCUAUGGUGAAGGCAUAGUCUAGGGAGAGGCGAAAGUCACACAAACCGG [C82G A111G A145U C169U U176A]	0.0142
GUGCCUUGCGCCGGGAAACCACGCAAGGGAUGGUGUCAAAUUCGGCGAAACCUAAGCGCCCGCCCGGGCGUAUGGCAACGCGGAGCCAAGCUUCGGCGCCUGCGCCGAUGGAGGUGUAGAGACUAGACGGCACCCACCUAAGGCUAACGCUAUGGUGAAGGCAUAGUCUAGGGAGCGGCGAAAGUCACACAAACCGG [C82G A111G A145U C169U U176C]	0.0127
GUGCCUUGCGCCGGGAAACCACGCAAGGGAUGGUGUCAAAUUCGGCGAAACCUAAGCGCCCGCCCGGGCGUAUGGCAACGCGGAGCCAAGCUUCGGCGCCUGCGCCGAUGGAGGUGUAGAGACUAGACGGCACCCACCUAAGGCUAACGCUAUGGUGAAGGCAUAGUCUAGGGAGGGGCGAAAGUCACACAAACCGG [C82G A111G A145U C169U U176G]	0.00489
GUGCCUUGCGCCGGGAAACCACGCAAGGGAUGGUGUCAAAUUCGGCGAAACCUAAGCGCCCGCCCGGGCGUAUGGCAACGCGGAGCCAAGCUUCGGCGCCUGCGCCGAUGGAGGUGUAGAGACUAGACGGCACCCACCUAAGGCUAACGCUAUGGUGAAGGCAUAGUCCAGGGAGAGGCGAAAGUCACACAAACCGG [C82G A111G A145U U176A]	0.257
GUGCCUUGCGCCGGGAAACCACGCAAGGGAUGGUGUCAAAUUCGGCGAAACCUAAGCGCCCGCCCGGGCGUAUGGCAACGCGGAGCCAAGCUUCGGCGCCUGCGCCGAUGGAGGUGUAGAGACUAGACGGCACCCACCUAAGGCUAACGCUAUGGUGAAGGCAUAGUCCAGGGAGCGGCGAAAGUCACACAAACCGG [C82G A111G A145U U176C]	0.28
GUGCCUUGCGCCGGGAAACCACGCAAGGGAUGGUGUCAAAUUCGGCGAAACCUAAGCGCCCGCCCGGGCGUAUGGCAACGCGGAGCCAAGCUUCGGCGCCUGCGCCGAUGGAGGUGUAGAGACUAGACGGCACCCACCUAAGGCUAACGCUAUGGUGAAGGCAUAGUCCAGGGAGGGGCGAAAGUCACACAAACCGG [C82G A111G A145U U176G]	0.136
GUGCCUUGCGCCGGGAAACCACGCAAGGGAUGGUGUCAAAUUCGGCGAAACCUAAGCGCCCGCCCGGGCGUAUGGCAACGCGGAGCCAAGCUUCGGCGCCUGCGCCGAUGGAGGUGUAGAGACUAGACGGCACCCACCUAAGGCAAACGAUAUGGUGAAGGCAUAGUCCAGGGAGUGGCGAAAGUCACACAAACCGG [C82G A111G C150A]	0.0393
GUGCCUUGCGCCGGGAAACCACGCAAGGGAUGGUGUCAAAUUCGGCGAAACCUAAGCGCCCGCCCGGGCGUAUGGCAACGCGGAGCCAAGCUUCGGCGCCUGCGCCGAUGGAGGUGUAGAGACUAGACGGCACCCACCUAAGGCAAACGAUAUGGUGAAGGCAUAGUCAAGGGAGUGGCGAAAGUCACACAAACCGG [C82G A111G C150A C169A]	0.0122
GUGCCUUGCGCCGGGAAACCACGCAAGGGAUGGUGUCAAAUUCGGCGAAACCUAAGCGCCCGCCCGGGCGUAUGGCAACGCGGAGCCAAGCUUCGGCGCCUGCGCCGAUGGAGGUGUAGAGACUAGACGGCACCCACCUAAGGCAAACGAUAUGGUGAAGGCAUAGUCAAGGGAGAGGCGAAAGUCACACAAACCGG [C82G A111G C150A C169A U176A]	0.0211
